Measured values taken from patent US6713276.

Biological target: APP751sw (751 form of APP carrying the Swedish mutation), P05067
Sequence (P05067 whole entry, looked up, change not shown): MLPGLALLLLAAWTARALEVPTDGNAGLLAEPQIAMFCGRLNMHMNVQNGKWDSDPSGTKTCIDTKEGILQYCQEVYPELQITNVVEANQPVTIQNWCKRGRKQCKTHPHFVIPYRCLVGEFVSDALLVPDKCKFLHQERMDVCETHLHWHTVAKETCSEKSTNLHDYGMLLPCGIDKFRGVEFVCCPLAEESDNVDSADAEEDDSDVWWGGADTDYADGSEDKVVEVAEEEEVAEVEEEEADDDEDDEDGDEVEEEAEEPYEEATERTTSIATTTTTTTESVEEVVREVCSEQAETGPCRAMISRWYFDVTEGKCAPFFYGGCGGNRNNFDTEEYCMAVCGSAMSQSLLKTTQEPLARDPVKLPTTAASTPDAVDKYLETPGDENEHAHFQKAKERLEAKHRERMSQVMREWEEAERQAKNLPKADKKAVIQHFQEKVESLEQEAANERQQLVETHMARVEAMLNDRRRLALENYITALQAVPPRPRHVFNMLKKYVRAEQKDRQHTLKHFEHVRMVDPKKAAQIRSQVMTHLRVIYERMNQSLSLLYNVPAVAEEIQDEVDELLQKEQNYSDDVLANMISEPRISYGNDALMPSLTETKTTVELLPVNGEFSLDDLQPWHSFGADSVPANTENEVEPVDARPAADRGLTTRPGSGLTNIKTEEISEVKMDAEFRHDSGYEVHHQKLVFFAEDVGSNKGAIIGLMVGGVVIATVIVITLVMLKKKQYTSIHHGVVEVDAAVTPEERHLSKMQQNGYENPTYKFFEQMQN

B1: BACE2 D110A (protein)
chain: ALEPALASPAGAANFLAMVDNLQGDSGRGYYLEMLIGTPPQKLQILVATGSSNFAVAGTPHSYIDTYFDTERSSTYRSKGFDVTVKYTQGSWTGFVGEDLVTIPKGFNTSFLVNIATIFESENFFLPGIKWNGILGLAYATLAKPSSSLETFFDSLVTQANIPNVFSMQMCGAGLPVAGSGTNGGSLVLGGIEPSLYKGDIWYTPIKEEWYYQIEILKLEIGGQSLNLDCREYNADKAIVDSGTTLLRLPQKVFDAVVEAVARASLIPEFSDGFWTGSQLACWTNSETPWSYFPKISIYLRDENSSRSFRITILPQLYIQPMMGAGLNYECYRFGISPSTNALVIGATVMEGFYVIFDRAQKRVGFAASPCAEIAGAAVSEISGPFSTEDVASNCVPAQSLSEPILWIVSYALMSVCGAILLVLIVLLLLPFRCQRRPRDPEVVNDESSLVRHRWK
  β-NTF formation, Q-HP Sepharose fractions of membrane extracts reconstituted with APP751sw for 2 hours at 37° C.: extracts derived from BACE2 D110A transfected cells lost their ability to cleave at the β-secretase site in vitro
